Measured values: patent US20090281024A1 (RAPTOR PHARMACEUTICALS, published 2009)

Columns and labels:
RAP d3 E217K = biological target: T1, RAP d3 E217K (human, UniProt P30533 235-353); experiment: solid-phase binding assay: LRP2 CR89 coated on the plate, d3 ligand in solution, anti-RAP detection, absorbance
T1 construct: range 201-319 (mature RAP numbering); Forward mutant of m1; same construct; also called RAP E217K; not shown: N-terminal hexahistidine and S-peptide tags of pET30(+)a
T1 sequence (looked up): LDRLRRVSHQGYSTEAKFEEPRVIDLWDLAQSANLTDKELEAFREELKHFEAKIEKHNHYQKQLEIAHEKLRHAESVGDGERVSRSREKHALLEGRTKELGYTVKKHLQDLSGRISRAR
Experimental: (§1) Solid phase binding assays—Purified, refolded CR protein (1 μg) was bound to Nunc Maxisorp™ 96-well plates in TBS pH 8 supplemented with 5 mM CaCl₂ (TBSC) overnight at 4° C. Wells were washed with TBSC and then blocked with TBSC containing 2% bovine serum albumin (BSA). RAP ligands were then incubated with the immobilized receptor at a range of concentrations for 2 hours in the above blocking buffer supplemented with 0.05% Tween-20 at room temperature. Control wells contained no added ligand. As an additional control, to determine whether the absence of calcium affected binding, 10 mM EGTA was included in the incubation medium for some samples. Wells were washed with TBSTC and bound ligands detected with polyclonal anti-RAP (BP41/42, 1:1,000, BioMarin). Excess primary antibody was removed and wells washed before incubation with the secondary antibody, HRP-conjugated goat anti rabbit IgG (Bio-Rad). After washing, TMB substrate solutions (Bio-Rad) were added to detect HRP. Color development was stopped with 1N HCl. Absorption at 450 nm was measured with a microplate spectrophotometer (Molecular Devices). Data were plotted and Kd values derived by non-linear regression with the assumption of single-site binding (GraphPad Prism).
(§2) Next, the binding of RAP d3 and MegaRAP1 d3 proteins to LRP1 CR3-5 and LRP2 CR89 was assessed. […] In all cases, 10 mM EGTA prevented binding of both RAP d3 and MegaRAP1 d3 to CR proteins. Since calcium was the only divalent metal ion present in the binding buffer, this observation is consistent with both RAP d3 and MegaRAP1 d3 binding to calcium-loaded CR pairs. […] Therefore, wild-type RAP d3 and MegaRAP1 d3 have inverted binding preferences for these two receptor fragments.

RAP d3 H249Y = biological target: T2, RAP d3 H249Y (human, UniProt P30533 235-353); experiment: as above
T2 construct: range 201-319 (mature RAP numbering); Forward mutant of m1; same construct; also called RAP H249Y; not shown: N-terminal hexahistidine and S-peptide tags of pET30(+)a
T2 sequence (looked up): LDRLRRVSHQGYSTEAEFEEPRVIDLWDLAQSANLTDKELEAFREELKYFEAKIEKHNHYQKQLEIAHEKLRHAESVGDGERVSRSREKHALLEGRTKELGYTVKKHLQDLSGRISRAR
Experimental: as §1, §2

MegaRAP1 d3 = biological target: T3, MegaRAP1 d3 (human, UniProt P30533 235-353); experiment: solid-phase assay, coated CR protein
T3 construct: range 201-319 (mature RAP numbering); d3 of the variant selected on LRP2 CR89; also called RAPv2A d3; RAP v2A; not shown: N-terminal hexahistidine and S-peptide tags of pET30(+)a
T3 sequence (looked up): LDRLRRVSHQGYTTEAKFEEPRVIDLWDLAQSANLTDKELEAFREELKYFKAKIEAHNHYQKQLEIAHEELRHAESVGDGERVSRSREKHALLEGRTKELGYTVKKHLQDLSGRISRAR
Experimental: Wells were washed with TBSTC and bound ligands detected with polyclonal anti-RAP (BP41/42, 1:1,000, BioMarin). Excess primary antibody was removed and wells washed before incubation with the secondary antibody, HRP-conjugated goat anti rabbit IgG (Bio-Rad). After washing, TMB substrate solutions (Bio-Rad) were added to detect HRP. Color development was stopped with 1N HCl. Absorption at 450 nm was measured with a microplate spectrophotometer (Molecular Devices). Data were plotted and Kd values derived by non-linear regression with the assumption of single-site binding (GraphPad Prism).
One premise of this work was that amino acids at A, C, A′ and C′ within the calcium-binding loops of a CR pair were key determinants of binding affinity for RAP and would be similarly important for binding of RAP variants. To test this idea, mutant LRP2 CR89 were prepared in which the native, non-canonical residues at these positions were sequentially substituted with the non-native, canonical residues. As defined above, the A, C, A′, C′ string for LRP2 CR89 is YVWR. Mutants included LRP2 CR89Y1042W (WVWR), LRP2 CR89V1047D (YDWR), LRP2 CR89R1088D (YVWD), LRP2 CR89V1047D R1088D (YDWD), LRP2 CR89 Y1042W V1047D R1088D (WDWD), LRP2 CR89Y1042W V1047D (WDWR), LRP2 CR89Y1042W R1088D (WVWD). Binding to both RAP d3 and MegaRAP1 d3 were measured for each LRP2 CR89 mutant by solid-phase assay. […] The A′ position in LRP2 CR89 is a tryptophan, the canonical residue for wild-type RAP d3 binding, and was not mutated in our studies. […] We did see a small increase in binding of RAP d3 to the WVWD and WDWD combinations at A, C, A′ and C′.

B1: LRP2 CR89 (receptor)
chain: not shown
notes: domain: CR89; Limits of the fragment are set only by the primers LRP2CR8F and LRP2CR9R; also called YVWR; L2 CR89; not shown: N-terminal hexahistidine and S-peptide tags of pET30(+)a
RAP d3 E217K
  binding result: no binding (tested: 100 nM)
RAP d3 H249Y
  binding result: no binding (tested: 100 nM)
MegaRAP1 d3
  Kd: 33 nM
